In PMC2722910:

Test system: CC(C)C[C@H](NC(=O)[C@H](CO)NC(=O)[C@H](C)NC(=O)[C@H](CCCNC(=N)N)NC(=O)[C@H](CCCNC(=N)N)NC(=O)[C@@H](N)CC(C)C)C(=O)NCC(=O)O
Assay: purified protein
Conditions: Mg2+, ATP

“cAMP-dependent kinase (PKA) catalytic subunit (Homo sapiens)” gave a kcat of 8.5 ± 0.5 s⁻¹.
